Patent US20250179200A1 (UNIVERSITY OF CHICAGO, published 2025)
Substitutions are numbered along the chain they refer to.

T1: Human GHR-Fc-10x His (extracellular region of human growth hormone receptor fused to human Fc) (human, UniProt P10912 50-256)
T1 construct: Captured by its 10x His-tag on a Ni-NTA sensor chip for SPR; not shown: human Fc domain of vector pAB1200 with its linker; 10x His-tag replacing the AviTag
T1 sequence (looked up): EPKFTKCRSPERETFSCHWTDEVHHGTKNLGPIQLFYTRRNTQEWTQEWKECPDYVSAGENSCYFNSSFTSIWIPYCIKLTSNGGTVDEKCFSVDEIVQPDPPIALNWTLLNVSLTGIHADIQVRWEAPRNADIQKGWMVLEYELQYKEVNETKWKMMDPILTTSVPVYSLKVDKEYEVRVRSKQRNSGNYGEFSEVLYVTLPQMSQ

B1: GHR11 Fab (Fab, V domains shown)
VH: EVQLVESGGGLVQPGGSLRLSCAASGFNLSYYYIHWVRQAPGKGLEWVASIYSSSGYTYYADSVKGRFTISADTSKNTAYLQMNSLRAEDTAVYYCARQYPYSWSSYGFSSGALDYWGQGTLVTVSS
VL: DIQMTQSPSSLSASVGDRVTITCRASQSVSSAVAWYQQKPGKAPKLLIYSASSLYSGVPSRFSGSRSGTDFTLTISSLQPEDFATYYCQQYFAYYSPITFGQGTKVEIKR
notes: Fab
B2: GHR1 Fab (Fab, V domains shown)
VH: EVQLVESGGGLVQPGGSLRLSCAASGFNVSYSSIHWVRQAPGKGLEWVAYIYSSYGSTYYADSVKGRFTISADTSKNTAYLQMNSLRAEDTAVYYCAREYWPYYSQTGGSAMDYWGQGTLVTVSS
VL: DIQMTQSPSSLSASVGDRVTITCRASQSVSSAVAWYQQKPGKAPKLLIYSASSLYSGVPSRFSGSRSGTDFTLTISSLQPEDFATYYCQQSMHPLITFGQGTKVEIKR
notes: Synthetic human Fab from phage display, expressed in E. coli
B3: GHR13 Fab (Fab, V domains shown)
VH: EVQLVESGGGLVQPGGSLRLSCAASGFNVYYSSIHWVRQAPGKGLEWVAYIYPSSGSTSYADSVKGRFTISADTSKNTAYLQMNSLRAEDTAVYYCARSWQWYYPGWEQYGWYGMDYWGQGTLVTVSS
VL: B2 VL with M92G, H93G, P94S, I96V
notes: Fab
B4: GHR12 Fab (Fab, V domains shown)
VH: EVQLVESGGGLVQPGGSLRLSCAASGFNVSYYSIHWVRQAPGKGLEWVASIYSSYGSTYYADSVKGRFTISADTSKNTAYLQMNSLRAEDTAVYYCARGYWQGGYYRWGNGGLDYWGQGTLVTVSS
VL: B2 VL with M92Y, H93G, P94W
notes: Fab
B5: GHR4 Fab (Fab, V domains shown)
VH: EVQLVESGGGLVQPGGSLRLSCAASGFNVYYSYIHWVRQAPGKGLEWVAYISPYSGSTSYADSVKGRFTISADTSKNTAYLQMNSLRAEDTAVYYCARQEWYAFDYWGQGTLVTVSS
VL: B2 VL with S91Y, M92W, H93S, P94Y
notes: Fab; also called FAB4
B6: GHR7 Fab (Fab, V domains shown)
VH: EVQLVESGGGLVQPGGSLRLSCAASGFNFSYSSIHWVRQAPGKGLEWVAYISSYYGYTSYADSVKGRFTISADTSKNTAYLQMNSLRAEDTAVYYCARLQHPSWYYYQGYHSGMDYWGQGTLVTVSS
VL: B2 VL with S91Y, M92W, H93S, P94S
notes: Fab
B7: GHR3 Fab (Fab, V domains shown)
VH: EVQLVESGGGLVQPGGSLRLSCAASGFNVSYYSIHWVRQAPGKGLEWVAYISPSYGSTSYADSVKGRFTISADTSKNTAYLQMNSLRAEDTAVYYCARGYWGGGYWPYHAFDYWGQGTLVTVSS
VL: B2 VL with S91Y, M92Y, H93T, P94S, I96L
notes: Fab
B8: GHR8 Fab (Fab, V domains shown)
VH: EVQLVESGGGLVQPGGSLRLSCAASGFNISYSSIHWVRQAPGKGLEWVASIYSSYGSTYYADSVKGRFTISADTSKNTAYLQMNSLRAEDTAVYYCARSYIYSQPGFYYDSYALDYWGQGTLVTVSS
VL: B2 VL with S91Y, M92G, H93S, P94W
notes: Fab
B9: GHR2 Fab (Fab, V domains shown)
VH: EVQLVESGGGLVQPGGSLRLSCAASGFNLYYSSIHWVRQAPGKGLEWVAYISPSYGSTSYADSVKGRFTISADTSKNTAYLQMNSLRAEDTAVYYCARYYDYSWPWYWHGGGPAFDYWGQGTLVTVSS
VL: DIQMTQSPSSLSASVGDRVTITCRASQSVSSAVAWYQQKPGKAPKLLIYSASSLYSGVPSRFSGSRSGTDFTLTISSLQPEDFATYYCQQYEEYPLITFGQGTKVEIKR
notes: Fab
B10: GHR6 Fab (Fab, V domains shown)
VH: EVQLVESGGGLVQPGGSLRLSCAASGFNVYYSSIHWVRQAPGKGLEWVASIYSSYGYTSYADSVKGRFTISADTSKNTAYLQMNSLRAEDTAVYYCARGQWSGLSGYWEYKALDYWGQGTLVTVSS
VL: B9 VL with Y91V, E92G, E93G, Y94S, P95S
notes: Fab
B11: GHR9 Fab (Fab, V domains shown)
VH: EVQLVESGGGLVQPGGSLRLSCAASGFNVSYSSIHWVRQAPGKGLEWVASISSSYGSTYYADSVKGRFTISADTSKNTAYLQMNSLRAEDTAVYYCARYYDYSWSTYKGIGTGAIDYWGQGTLVTVSS
VL: B9 VL with E92W, E93Y, Y94S, P95Y
notes: Fab
B12: GHR15 Fab (Fab, V domains shown)
VH: EVQLVESGGGLVQPGGSLRLSCAASGFNVSSSSIHWVRQAPGKGLEWVASIYSYYGYTSYADSVKGRFTISADTSKNTAYLQMNSLRAEDTAVYYCARSSGYHGWYWNGMDYWGQGTLVTVSS
VL: B9 VL with Y91W, E92Y, E93G, Y94M, P95S, I97V
notes: Fab
B13: GHR10 Fab (Fab, V domains shown)
VH: EVQLVESGGGLVQPGGSLRLSCAASGFNFSYYSIHWVRQAPGKGLEWVASISSYYGSTSYADSVKGRFTISADTSKNTAYLQMNSLRAEDTAVYYCARTEYSFGMYWAHTGMDYWGQGTLVTVSS
VL: B9 VL with Y91F, E92W, E93S, Y94S, P95E, L96P
notes: Fab
B14: GHR5 Fab (Fab, V domains shown)
VH: EVQLVESGGGLVQPGGSLRLSCAASGFNVSYYSIHWVRQAPGKGLEWVAYISPSSGSTSYADSVKGRFTISADTSKNTAYLQMNSLRAEDTAVYYCARMYWQGGYSSYWQSYAMDYWGQGTLVTVSS
VL: B9 VL with Y91K, E92S, E93Q, P95S, I97V
notes: Fab
B15: GHR14 Fab (Fab, V domains shown)
VH: EVQLVESGGGLVQPGGSLRLSCAASGFNISSSYIHWVRQAPGKGLEWVASISSYYGYTSYADSVKGRFTISADTSKNTAYLQMNSLRAEDTAVYYCARSYGSYYGYYHYWEWYGLDYWGQGTLVTVSS
VL: B9 VL with Y91W, E92Q, E93Y, Y94W, P95S, L96P, I97V
notes: Fab

Target: T1, Human GHR-Fc-10x His (extracellular …)
Assay: SPR, GHR-Fc-10xHis captured on Ni-NTA chip, Fab as analyte, 1:1 fit
Experimental: Surface plasmon resonance (SPR) measurements were conducted in a MASS-1 (Bruker) instrument. The target GHR-Fc (50 nM) with a 10× His-tag was captured in a Ni-NTA sensor chip. […] Flow rate was 30 ul/min and temperature 20° C. Sensograms were corrected through double referencing and fitting was done with a 1:1 binding model using the Sierra Analyzer (Bruker). For epitope binning experiments, the first FAB was injected at saturating concentrations (200 nM), followed by injection a second FAB in equal molar mixture with the first FAB, and the response unit (RU) was recorded.
Target GHR_Fc (from different species) were immobilized via a 10× His-tag to a Ni-NTA sensor chip. […] Sensograms were corrected through double referencing and 1:1 binding model fit was done using Sierra Analyzer (Bruker). To reveal different epitopes on GHR, the epitope binning experiment was performed.

Row | Binder | Kd [nM] | koff [s⁻¹] | kon [M⁻¹ s⁻¹]
1 | B1 | 1.3 | 0.000587 | 451000
2 | B2 | 6.29 | 0.000336 | 53400
3 | B3 | 2.84 | 0.00053 | 187000
4 | B4 | < 1 | 0.000168 | 536000
5 | B5 | 1.9 | 0.000992 | 522000
6 | B6 | 2.21 | 0.00129 | 587000
7 | B7 | < 1 | 1.32e-06 | 405000
8 | B8 | 3.23 | 0.000505 | 156000
9 | B9 | 16.8 | 0.000873 | 51200
10 | B10 | 1.89 | 0.000296 | 156000
11 | B11 | < 1 | 0.00012 | 238000
12 | B12 | < 1 | 0.000131 | 170000
13 | B13 | 1.51 | 0.000642 | 425000
14 | B14 | 15.5 | 0.00211 | 136000
15 | B15 | 7.15 | 0.00127 | 177000
